The results in this text go back to US20210198328A1, “MODULATED CAS-INHIBITORS” (Universität Heidelberg, priority 2017, published 2021).

The experiment deals with dCas9-3xRFP. Nature of the experiment: Telomere labeling, automated image analysis. It is filed as cell-based, Streptococcus pyogenes. The following applies: U2OS, light or dark 20 h. The method, then:
U2OS cells were seeded into 4-compartment CELLview cell culture dishes (Greiner Bio-One) at a density of 30,000 cells per compartment. The next day, cells were transfected with vectors encoding (i) a CMV promoter-driven dCas9-3xRFP-P2A-CASANOVA and a U6 promoter-driven telomere-targeting gRNA, (ii) a telomere-targeting gRNA and GFP transfection marker, and (iii) a CMV promoter-driven CASANOVA in a ratio of 20:6:3 using 362.5 ng total DNA and 1.5 μl JetPrime for transfection (per compartment).
In the positive control samples, vector i was replaced by a vector encoding dCas9-3xRFP (without the P2A-CASANOVA) and a U6 promoter-driven telomere-targeting RNA, and vector iii was replaced by an irrelevant DNA. […] SlowFade™ Diamond Antifade Mountant with DAPI (Invitrogen) was added and imaging was performed using the aforementioned microscopy setup and the following excitation/detection settings: 405 nm (1% laser powerV410-490 nm for DAPI, 488 nm (2% laser power)/493-578 nm for GFP, or 552 nm (1% laser power)/578-789 nm for RFP. RFP fluorescent spots (i.e., labeled telomeres) were then detected and quantified using a fully automated image analysis pipeline as follows. The ImageJ2 (beta) Integration in KNIME Version 3.5.2 (KNIME AG) was used to create an automated image processing and analysis pipeline employed for quantification of labeled telomeres. […]

B1: AcrIIA4: anti-CRISPR polypeptide of a Listeria monocytogenes prophage, SEQ ID NO: 1 (protein)
chain: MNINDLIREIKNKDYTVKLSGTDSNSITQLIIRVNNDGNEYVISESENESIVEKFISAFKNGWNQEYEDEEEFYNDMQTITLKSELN
modifications: Listeria monocytogenes
For B1, the “telomere labeling, light-independent” value is reported as “weak”.
